Data taken from publication PMC6847799, “A global functional analysis of missense mutations reveals two major hotspots in the PALB2 tumor suppressor” (Nucleic Acids Research, 2019).

Target: T1, GAL4DBD-BRCA1 wild-type (aa 1315–1863) (UniProt P38398 1315-1863)
T1 construct: BRCA1, aa 1315-1863; bait of the mammalian two-hybrid; source: HEK293FT, transfected (mammalian two-hybrid fusion)
Assay: two-hybrid; mammalian two-hybrid in HEK293FT cells: VP16 AD-PALB2 N- or C-terminal construct (prey) co-transfected with GAL4DBD-BRCA1 or GAL4DBD-BRCA2 (bait), pG5Luc reporter and pGR-TK internal control; dual-luciferase read 24 h post-transfection; mean percentage luciferase activity of 3 independent experiments
Settings: partners not purified

T1 sequence (P38398 1315-1863): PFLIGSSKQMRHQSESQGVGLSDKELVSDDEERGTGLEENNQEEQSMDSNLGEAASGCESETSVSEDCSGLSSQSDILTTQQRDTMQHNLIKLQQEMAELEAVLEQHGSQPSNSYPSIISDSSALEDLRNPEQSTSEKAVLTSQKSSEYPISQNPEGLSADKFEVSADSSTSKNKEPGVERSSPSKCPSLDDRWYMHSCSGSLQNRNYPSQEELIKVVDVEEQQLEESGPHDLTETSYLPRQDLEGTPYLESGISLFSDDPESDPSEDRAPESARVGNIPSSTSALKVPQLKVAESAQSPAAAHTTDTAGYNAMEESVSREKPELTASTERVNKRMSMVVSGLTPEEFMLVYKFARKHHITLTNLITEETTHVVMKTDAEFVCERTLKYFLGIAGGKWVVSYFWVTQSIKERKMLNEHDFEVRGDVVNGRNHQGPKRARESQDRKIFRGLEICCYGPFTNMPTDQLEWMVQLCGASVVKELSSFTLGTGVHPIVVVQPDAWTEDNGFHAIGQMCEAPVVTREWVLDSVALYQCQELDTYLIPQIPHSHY

B1: VP16 AD-PALB2 N-terminal wild-type (aa 1–319) (domain or fragment, human, UniProt Q86YC2 1-319, looked up)
chain: MDEPPGKPLSCEEKEKLKEKLAFLKREYSKTLARLQRAQRAEKIKHSIKKTVEEQDCLSQQDLSPQLKHSEPKNKICVYDKLHIKTHLDEETGEKTSITLDVGPESFNPGDGPGGLPIQRTDDTQEHFPHRVSDPSGEQKQKLPSRRKKQQKRTFISQERDCVFGTDSLRLSGKRLKEQEEISSKNPARSPVTEIRTHLLSLKSELPDSPEPVTEINEDSVLIPPTAQPEKGVDTFLRRPNFTRATTVPLQTLSDSGSSQHLEHIPPKGSSELTTHDLKNIRFTSPVSLEAQGKKMTVSTDNLLVNKAISKSGQLPTSS
notes: PALB2 (1186-amino acid protein), human, aa 1-319; cloned in pVP16 downstream of the VP16 AD cassette; prey; also called PALB2 WT; PALB2 N-terminal construct; source: HEK293FT, transfected (mammalian two-hybrid fusion)
  fold increase of luciferase-reporter activity over BRCA1 alone: 2 fold
